Test system: elastase
Assay: Elastase inhibition assay (fibroblast lysate, STANA substrate)
Type: biochemical, human
Method: The RSPP test materials were also tested to determine their effect(s) on elastase activity. In these experiments, human dermal fibroblasts were used as a source of the elastase enzyme. This enzyme was partially purified from the fibroblasts by lysing the cells in an elastase buffer and retaining the soluble portion of the lysate. Portions of this fibroblast lysate were then incubated with test materials and a synthetic elastase substrate, Suc-(Ala3)-p-Nitroaniline (STANA). Elastase acts upon this substrate to release p-nitroaniline, which can be detected spectrophotometrically by measuring the absorbance at a wavelength of 405 nm. An inhibition of the elastase enzyme is noted by a decrease in the amount of released p-nitroaniline when compared to uninhibited enzyme.
Cells were expanded and passed until a sufficient number of cells had been grown (not exceeding 10 passages). When a sufficient number of cells had been grown, the fibroblast lysate containing the elastase enzyme was prepared as follows:
The fibroblasts were washed twice with 15 ml of phosphate buffered saline with each wash removed via aspiration. Ice cold PBS (7.5 ml) was then added to the flask and the cells were detached with a cell scraper. The detached cells/PBS was transferred to a 15 ml centrifuge tube on ice. The flask was rinsed again with 7.5 ml of PBS, which was also transferred to the 15 ml tube. […] The protein concentration of the fibroblast lysate was determined using the Pierce BCA Protein Assay kit (see below for details) and the fibroblast lysate was stored at −75° C. until used (for up to 1 year).
Upon determining the protein concentration of the lysate, a small sample was obtained and the elastase activity of the lysate was determined at 1×, 0.5× and 0.25× concentrations. The activity was determined for each of the different concentrations in exactly the same way that the uninhibited sample was treated in the elastase assay (see below). […] After 1.25 hours, the well plate was removed and read in a 96-well plate reader at 405 nm. The mean absorbances were plotted versus concentration. […]

Percent Inhibition (0.1%): −13% | Percent Inhibition (0.5%): −20% | Percent Inhibition (1%): −5%
B1: GC2596-26-E: collagen-like repeat sequence protein polymer, head-[(GAHGPAGPK)2(GAQGPAGPG)24(GAHGPAGPK)2]4-tail; SEQ ID NO:34 (Example 5) (protein)
chain: MDPVVLQRRDWENPGVTQLNRLAAHPPFASDPMGAHGPAGPKGAHGPAGPKGAQGPAGPGGAQGPAGPGGAQGPAGPGGAQGPAGPGGAQGPAGPGGAQGPAGPGGAQGPAGPGGAQGPAGPGGAQGPAGPGGAQGPAGPGGAQGPAGPGGAQGPAGPGGAQGPAGPGGAQGPAGPGGAQGPAGPGGAQGPAGPGGAQGPAGPGGAQGPAGPGGAQGPAGPGGAQGPAGPGGAQGPAGPGGAQGPAGPGGAQGPAGPGGAQGPAGPGGAHGPAGPKGAHGPAGPKGAHGPAGPKGAHGPAGPKGAQGPAGPGGAQGPAGPGGAQGPAGPGGAQGPAGPGGAQGPAGPGGAQGPAGPGGAQGPAGPGGAQGPAGPGGAQGPAGPGGAQGPAGPGGAQGPAGPGGAQGPAGPGGAQGPAGPGGAQGPAGPGGAQGPAGPGGAQGPAGPGGAQGPAGPGGAQGPAGPGGAQGPAGPGGAQGPAGPGGAQGPAGPGGAQGPAGPGGAQGPAGPGGAQGPAGPGGAHGPAGPKGAHGPAGPKGAHGPAGPKGAHGPAGPKGAQGPAGPGGAQGPAGPGGAQGPAGPGGAQGPAGPGGAQGPAGPGGAQGPAGPGGAQGPAGPGGAQGPAGPGGAQGPAGPGGAQGPAGPGGAQGPAGPGGAQGPAGPGGAQGPAGPGGAQGPAGPGGAQGPAGPGGAQGPAGPGGAQGPAGPGGAQGPAGPGGAQGPAGPGGAQGPAGPGGAQGPAGPGGAQGPAGPGGAQGPAGPGGAQGPAGPGGAHGPAGPKGAHGPAGPKGAHGPAGPKGAHGPAGPKGAQGPAGPGGAQGPAGPGGAQGPAGPGGAQGPAGPGGAQGPAGPGGAQGPAGPGGAQGPAGPGGAQGPAGPGGAQGPAGPGGAQGPAGPGGAQGPAGPGGAQGPAGPGGAQGPAGPGGAQGPAGPGGAQGPAGPGGAQGPAGPGGAQGPAGPGGAQGPAGPGGAQGPAGPGGAQGPAGPGGAQGPAGPGGAQGPAGPGGAQGPAGPGGAQGPAGPGGAHGPAGPKGAHGPAGPKMDPGRYQLSAGRYHYQLVWCQK
modifications: silk-elastin repeat sequence protein copolymer

Reference: patent US20130059772A1, “Use of Repeat Sequence Protein Polymers in Personal Care Compositions” (DANISCO US INC., priority 2003, published 2013)
